Experimental data: paper PMC5959800 (The international journal of biochemistry & cell biology, 2018)

Molecular target: T1, Histidine-tagged AIMP1 (immobilised in SPR) (UniProt Q12904 1-312)
T1 sequence (looked up): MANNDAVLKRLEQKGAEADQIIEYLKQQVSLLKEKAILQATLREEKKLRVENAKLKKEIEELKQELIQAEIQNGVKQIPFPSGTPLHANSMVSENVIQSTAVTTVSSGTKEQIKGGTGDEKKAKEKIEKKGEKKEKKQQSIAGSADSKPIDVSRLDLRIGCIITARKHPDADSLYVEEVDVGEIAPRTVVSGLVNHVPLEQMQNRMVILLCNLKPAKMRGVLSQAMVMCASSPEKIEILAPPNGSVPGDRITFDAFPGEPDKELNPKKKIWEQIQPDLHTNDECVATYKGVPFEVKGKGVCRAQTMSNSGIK
Experiment: SPR

Kd: 25.3 nM
B1: His-tagged AIMP3 (natural protein, UniProt O43324 1-174, looked up)
chain: MAAAAELSLLEKSLGLSKGNKYSAQGERQIPVLQTNNGPSLTGLTTIAAHLVKQANKEYLLGSTAEEKAIVQQWLEYRVTQVDGHSSKNDIHTLLKDLNSYLEDKVYLTGYNFTLADILLYYGLHRFIVDLTVQEKEKYLNVSRWFCHIQHYPGIRQHLSSVVFIKNRLYTNSH
